From patent US20160272691A1, “COMPOSITIONS AND METHODS FOR TREATING CONDITIONS ASSOCIATED WITH y-HERPESVIRUSES” (NDSU RESEARCH FOUNDATION, priority 2013, published 2016)

Legend:
[1] = biological target: T1, γHV68 M11 residues 1-136 (murine γHV68), P89884; test: ITC, 25 °C
T1 chain: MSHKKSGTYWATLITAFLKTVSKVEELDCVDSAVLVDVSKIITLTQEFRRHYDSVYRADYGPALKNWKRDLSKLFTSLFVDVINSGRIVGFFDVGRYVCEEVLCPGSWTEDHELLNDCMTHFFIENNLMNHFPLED

[2] = biological target: T1, γHV68 M11 residues 1-136 (murine …); test: ITC
[3] = biological target: T1, γHV68 M11 residues 1-136 (murine …); test: ITC (Table 4; quantity and unit in Table 1)
[4] = biological target: T2, His6-tagged Bcl-XL (residues 1-208, N52D, N66D) (human), Q07817; test: ITC, 25 °C
T2 chain: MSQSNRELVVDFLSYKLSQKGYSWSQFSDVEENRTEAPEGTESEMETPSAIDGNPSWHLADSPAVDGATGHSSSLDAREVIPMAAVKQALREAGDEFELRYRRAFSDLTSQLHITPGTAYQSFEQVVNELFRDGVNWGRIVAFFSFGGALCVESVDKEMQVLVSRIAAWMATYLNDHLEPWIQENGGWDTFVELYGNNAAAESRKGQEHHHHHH

[5] = biological target: T2, His6-tagged Bcl-XL (residues 1-208, …); test: ITC
[6] = biological target: T2, His6-tagged Bcl-XL (residues 1-208, …); test: ITC (Table 4; quantity and unit in Table 1)
Bcl-2, P10415 [7] = test: ITC (Table 4; quantity and unit in Table 1)
Chain of Bcl-2, P10415 (P10415 1-211 limits assumed): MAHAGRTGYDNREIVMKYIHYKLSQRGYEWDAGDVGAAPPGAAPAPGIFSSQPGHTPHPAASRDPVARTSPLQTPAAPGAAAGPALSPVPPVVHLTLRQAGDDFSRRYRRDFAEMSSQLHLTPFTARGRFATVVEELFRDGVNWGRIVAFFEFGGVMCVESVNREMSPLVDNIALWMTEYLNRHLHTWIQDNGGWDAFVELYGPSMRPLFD

KSHV Bcl-2 (KSHV) = test: not stated in the sentence (ITC implied)
Bcl-2, P10415 [8] = test: not stated in the sentence (ITC implied)

Binder | Kd [1] [µM] | ΔG [1] [kJ/mol] | ΔH [1] [kJ/mol] | ΔS [1] [J/K · mol] | Kd [3] [µM] | Kd [4] [µM] | ΔG [4] [kJ/mol] | ΔH [4] [kJ/mol] | ΔS [4] [J/K · mol] | Kd [6] [µM] | other results
GSGTMENLSRRLKVTEDLFDIMSGQT (modifications not checked) [Beclin 1 BH3D-derived peptide G120E] | 36.5 | -25.4 | -52.2 | -90 | 36.5 |  |  |  |  |  | fold reduction of binding affinity versus WT BH3D [2]: 26 fold
GSGTMENLSRRLAVTGDLFDIMSGQT (modifications not checked) [Beclin 1 BH3D-derived peptide K117A] | 0.66 | -35.3 | -69.1 | -113 | 0.7 | 18.9 | -27 | -37.7 | -35.8 | 18.9 | fold weakening of binding versus WT BH3D [5]: 10 fold; fold improvement of binding versus WT BH3D [2]: 2 fold; Kd (Bcl-2, P10415 [7]): 24.5 µM
GSGTMENLSRRAKVTGDLFDIMSGQT (modifications not checked) [Beclin 1 BH3D-derived peptide L116A] | 178 | -21.4 | -36.4 | -50.3 | 178 |  |  |  |  |  | fold reduction of binding affinity versus WT BH3D [2]: > 70 fold
GSGTMENASRRLKVTGDLFDIMSGQT (modifications not checked) [Beclin 1 BH3D-derived peptide L112A] | 4.33 | -30.6 | -47.4 | -56.1 | 4.3 | 110 | -22.6 | -42.4 | -66.3 | 110 | fold reduction of binding versus WT BH3D [2]: 3 fold
GSGTMENLSRRLKVTGDLFDIMSGQT (modifications not checked) [Beclin 1 BH3D peptide, wild type] | 1.38 | -33.5 | -71 | -126 | 1.4 | 1.95 | -32.6 | -43.6 | -36.9 | 1.9 | fold difference in TΔSapp versus binding to Bcl-XL [2]: 4 fold; fold difference in ΔHapp versus binding to Bcl-XL [2]: 2 fold; Kd (Bcl-2, P10415 [7]): 10.4 µM; Kd (KSHV Bcl-2 (KSHV)): 54 µM; Kd (Bcl-2, P10415 [8]): 9 µM
GSGTMENLSRRLKVTEALFDIMSGQT (modifications not checked) [Beclin 1 BH3D-derived G120E+D121A double mutant peptide] | 6.43 | -29.6 | -62.3 | -110 | 6.4 |  |  |  |  |  | fold better affinity versus the G120E peptide [2]: 5.7 fold; fold weaker affinity versus WT BH3D [2]: 4.7 fold
GSGTMENLSRRLKVTGDLADIMSGQT (modifications not checked) [Beclin 1 BH3D-derived peptide F123A] | 5.2 | -30.2 | -59.4 | -97.8 | 5.2 | 408 | -19.4 | -30.7 | -38 | 408 | fold weakening of binding versus WT BH3D [5]: 10 fold; fold weakening of binding versus WT BH3D [2]: 4 fold
GSGTMENLSRRLKVTGALFDIMSGQT (modifications not checked) [Beclin 1 BH3D-derived peptide D121A] |  |  |  |  | 1.3 |  |  |  |  |  | 
